The results in this text go back to IntAct's records for PubMed 29039417.

To fix the notation:
B1: BBSome complex member BBS2 (Homo sapiens), Q9BXC9 (parent)
chain: MLLPVFTLKLRHKISPRMVAIGRYDGTHPCLAAATQTGKVFIHNPHTRNQHVSASRVFQSPLESDVSLLSINQAVSCLTAGVLNPELGYDALLVGTQTNLLAYDVYNNSDLFYREVADGANAIVLGTLGDISSPLAIIGGNCALQGFNHEGSDLFWTVTGDNVNSLALCDFDGDGKKELLVGSEDFDIRVFKEDEIVAEMTETEIVTSLCPMYGSRFGYALSNGTVGVYDKTSRYWRIKSKNHAMSIHAFDLNSDGVNELITGWSNGKVDARSDRTGEVIFKDNFSSAIAGVVEGDYRMDGHIQLICCSVDGEIRGYLPGTAEMRGNLMDTSAEQDLIRELSQKKQNLLLELRNYEENAKAELASPLNEADGHRGIIPANTRLHTTLSVSLGNETQTAHTELRISTSNDTIIRAVLIFAEGIFTGESHVVHPSIHNLSSSICIPIVPPKDVPVDLHLKAFVGYRSSTQFHVFESTRQLPRFSMYALTSLDPASEPISYVNFTIAERAQRVVVWLGQNFLLPEDTHIQNAPFQVCFTSLRNGGHLHIKIKLSGEITINTDDIDLAGDIIQSMASFFAIEDLQVEADFPVYFEELRKVLVKVDEYHSVHQKLSADMADHSNLIRSLLVGAEDARLMRDMKTMKSRYMELYDLNRDLLNGYKIRCNNHTELLGNLKAVNQAIQRAGRLRVGKPKNQVITACRDAIRSNNINTLFKIMRVGTASS
partner: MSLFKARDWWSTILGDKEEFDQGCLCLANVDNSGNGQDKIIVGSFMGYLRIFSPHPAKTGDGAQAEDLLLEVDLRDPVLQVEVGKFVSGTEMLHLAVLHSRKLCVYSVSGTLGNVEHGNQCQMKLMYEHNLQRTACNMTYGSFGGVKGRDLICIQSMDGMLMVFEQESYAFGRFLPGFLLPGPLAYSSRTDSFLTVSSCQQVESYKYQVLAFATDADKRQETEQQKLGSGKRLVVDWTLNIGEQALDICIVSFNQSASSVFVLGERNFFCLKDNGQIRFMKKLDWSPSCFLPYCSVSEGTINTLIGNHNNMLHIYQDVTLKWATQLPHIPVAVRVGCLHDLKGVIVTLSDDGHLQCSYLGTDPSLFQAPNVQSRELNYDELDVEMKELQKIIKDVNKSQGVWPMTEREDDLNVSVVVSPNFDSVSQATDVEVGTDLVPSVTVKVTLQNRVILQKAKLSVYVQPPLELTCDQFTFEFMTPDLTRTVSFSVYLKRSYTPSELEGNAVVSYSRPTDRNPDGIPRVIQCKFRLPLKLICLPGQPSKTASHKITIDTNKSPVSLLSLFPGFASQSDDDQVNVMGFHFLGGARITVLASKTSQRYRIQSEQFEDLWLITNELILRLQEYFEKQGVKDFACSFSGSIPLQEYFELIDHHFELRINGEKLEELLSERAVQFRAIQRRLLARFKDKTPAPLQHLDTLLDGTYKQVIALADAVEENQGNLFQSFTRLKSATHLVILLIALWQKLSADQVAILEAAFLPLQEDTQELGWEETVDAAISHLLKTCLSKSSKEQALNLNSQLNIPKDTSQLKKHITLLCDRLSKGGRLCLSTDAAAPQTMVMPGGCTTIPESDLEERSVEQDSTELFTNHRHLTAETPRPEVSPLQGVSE

Variants of B1 are the subject of the test. To be noted: with pthb1_human BBS9, Q3SYG4.
Turning to S433A, the “effect of a mutation on the interaction” value is listed as “with no effect”.

For S433E, the “effect of a mutation on the interaction” value is “with no effect”.

Regarding S433K, the “effect of a mutation on the interaction” value is recorded as “with no effect”.

As for H431E, the “effect of a mutation on the interaction” value is “with no effect”.

For the variant H431R, the “effect of a mutation on the interaction” value was “disrupting interaction strength”.

H431K: the “effect of a mutation on the interaction” value is recorded as “with no effect”.

H431A: the “effect of a mutation on the interaction” value is recorded as “with no effect”.

As to S427E, the “effect of a mutation on the interaction” value was “with no effect”.

As to S427K, the “effect of a mutation on the interaction” value was “with no effect”.

As to S427A, the “effect of a mutation on the interaction” value is “with no effect”.

Consider A419E, for which the “effect of a mutation on the interaction” value is reported as “with no effect”.

Turning to A419K, the “effect of a mutation on the interaction” value is on record as “with no effect”.

With G425K, the “effect of a mutation on the interaction” value was “with no effect”.

Regarding G425A, the “effect of a mutation on the interaction” value was “with no effect”.

Turning to G425E, the “effect of a mutation on the interaction” value is listed as “with no effect”.

For the variant V429K, the “effect of a mutation on the interaction” value is “with no effect”.

With V429E, the “effect of a mutation on the interaction” value is on record as “with no effect”.

Take V429A: the “effect of a mutation on the interaction” value is on record as “with no effect”.

Turning to I417K, the “effect of a mutation on the interaction” value is “with no effect”.

For I417A, the “effect of a mutation on the interaction” value is “with no effect”.

Turning to I417E, the “effect of a mutation on the interaction” value is “with no effect”.

For V415E, the “effect of a mutation on the interaction” value is reported as “with no effect”.

V415K: the “effect of a mutation on the interaction” value is recorded as “with no effect”.

As for V415A, the “effect of a mutation on the interaction” value was “with no effect”.

H435A: the “effect of a mutation on the interaction” value was “with no effect”.

In the case of H435K, the “effect of a mutation on the interaction” value was “with no effect”.

H435E: the “effect of a mutation on the interaction” value is listed as “with no effect”.

Regarding L416K, the “effect of a mutation on the interaction” value is “with no effect”.

In the case of L416A, the “effect of a mutation on the interaction” value is recorded as “with no effect”.

With L416E, the “effect of a mutation on the interaction” value is “with no effect”.

Consider E426K, for which the “effect of a mutation on the interaction” value is “with no effect”.

With E426A, the “effect of a mutation on the interaction” value is “with no effect”.

As to L437A, the “effect of a mutation on the interaction” value is recorded as “with no effect”.

In the case of P432E, the “effect of a mutation on the interaction” value is “with no effect”.

Turning to P432K, the “effect of a mutation on the interaction” value is “with no effect”.

In the case of P432L, the “effect of a mutation on the interaction” value is listed as “disrupting interaction strength”.

Regarding P432A, the “effect of a mutation on the interaction” value is “with no effect”.

With I422K, the “effect of a mutation on the interaction” value is given as “with no effect”.

Turning to I422E, the “effect of a mutation on the interaction” value is “with no effect”.

In the case of I422A, the “effect of a mutation on the interaction” value is “with no effect”.

On to T410A, for which the “effect of a mutation on the interaction” value is listed as “with no effect”.

With T410E, the “effect of a mutation on the interaction” value is on record as “with no effect”.

Turning to T410K, the “effect of a mutation on the interaction” value is listed as “with no effect”.

For the variant H428K, the “effect of a mutation on the interaction” value is “with no effect”.

As to H428E, the “effect of a mutation on the interaction” value is recorded as “with no effect”.

On to H428A, for which the “effect of a mutation on the interaction” value is given as “with no effect”.

In the case of V430A, the “effect of a mutation on the interaction” value was “disrupting interaction strength”.

As for V430E, the “effect of a mutation on the interaction” value is “with no effect”.

With V430K, the “effect of a mutation on the interaction” value is given as “with no effect”.

On to N436A, for which the “effect of a mutation on the interaction” value is “with no effect”.

With N436E, the “effect of a mutation on the interaction” value was “with no effect”.

N436K: the “effect of a mutation on the interaction” value was “with no effect”.

Take G421K: the “effect of a mutation on the interaction” value was “with no effect”.

Take G421A: the “effect of a mutation on the interaction” value is recorded as “with no effect”.

With G421E, the “effect of a mutation on the interaction” value is “with no effect”.

A414K: the “effect of a mutation on the interaction” value is “with no effect”.

For the variant A414V, the “effect of a mutation on the interaction” value is given as “disrupting interaction strength”.

In the case of A414E, the “effect of a mutation on the interaction” value is “with no effect”.

For F418K, the “effect of a mutation on the interaction” value is reported as “with no effect”.

Turning to F418A, the “effect of a mutation on the interaction” value was “with no effect”.

Turning to F418E, the “effect of a mutation on the interaction” value is given as “with no effect”.

Turning to F423E, the “effect of a mutation on the interaction” value was “with no effect”.

With F423A, the “effect of a mutation on the interaction” value is “with no effect”.

F423K: the “effect of a mutation on the interaction” value is listed as “with no effect”.

For the variant N408K, the “effect of a mutation on the interaction” value was “with no effect”.

As to N408A, the “effect of a mutation on the interaction” value is listed as “disrupting interaction strength”.

N408E: the “effect of a mutation on the interaction” value is “with no effect”.

For the variant E420A, the “effect of a mutation on the interaction” value is reported as “with no effect”.

Consider E420K, for which the “effect of a mutation on the interaction” value is on record as “with no effect”.

Regarding I434A, the “effect of a mutation on the interaction” value is recorded as “with no effect”.

For the variant I434K, the “effect of a mutation on the interaction” value is given as “with no effect”.

Take I434E: the “effect of a mutation on the interaction” value is reported as “with no effect”.

For the variant S407F, the “effect of a mutation on the interaction” value was “disrupting interaction strength”.

With S407K, the “effect of a mutation on the interaction” value is on record as “with no effect”.

On to D409K, for which the “effect of a mutation on the interaction” value is “with no effect”.

D409E: the “effect of a mutation on the interaction” value is reported as “with no effect”.

As to D409A, the “effect of a mutation on the interaction” value is on record as “with no effect”.

As for R413A, the “effect of a mutation on the interaction” value is “with no effect”.

For R413K, the “effect of a mutation on the interaction” value is on record as “disrupting interaction strength”.

R413E: the “effect of a mutation on the interaction” value is reported as “with no effect”.

With I412E, the “effect of a mutation on the interaction” value is listed as “with no effect”.

I412R: the “effect of a mutation on the interaction” value was “disrupting interaction strength”.

For the variant I412K, the “effect of a mutation on the interaction” value is listed as “with no effect”.

As for I412A, the “effect of a mutation on the interaction” value is given as “with no effect”.

As for I411K, the “effect of a mutation on the interaction” value is on record as “with no effect”.

In the case of I411A, the “effect of a mutation on the interaction” value is on record as “with no effect”.

I411E: the “effect of a mutation on the interaction” value is “with no effect”.

In the case of T424A, the “effect of a mutation on the interaction” value was “with no effect”.

Consider T424E, for which the “effect of a mutation on the interaction” value was “with no effect”.

Consider T424K, for which the “effect of a mutation on the interaction” value is recorded as “with no effect”.
